The values below are quoted from earlier work in patent publication US10744082B2, “Compositions for treatment of xerostomia and for tooth treatment” (3 IN 1 DENTAL PLLC, priority 2013, dated 2020).

This data set concerns lean meat. Particulars: usual grade of papain.

B1: Papain (protein, UniProt P00784 134-345, looked up)
Papain: IPEYVDWRQKGAVTPVKNQGSCGSCWAFSAVVTIEGIIKIRTGNLNEYSEQELLDCDRRSYGCNGGYPWSALQLVAQYGIHYRNTYPYEGVQRYCRSREKGPYAAKTDGVRQVQPYNEGALLYSIANQPVSVVLEAAGKDFQLYRGGIFVGPCGNKVDHAVAAVGYGPNYILIKNSWGTGWGENGYIRIKRGTGNSYGVCGLYTSSFYPVKN
notes: Protease enzyme; white or grayish-white, slightly hygroscopic powder, designated USP
Turning to B1, the “potency: weight of lean meat digested” value was ~35 times its weight.
